# Tests used:
# [1] = biological target: tissue factor (TF) antigen (UniProt P13726); experiment: SPR; against wild-type D3H44 Fab
# [2] = biological target: tissue factor (TF) antigen (UniProt P13726); experiment: SPR (ProteOn), Fab captured on anti-penta His, TF as analyte, 1:1 fit
# [3] = biological target: tissue factor (TF) antigen (UniProt P13726); experiment: SPR; log ratio against wild-type D3H44 Fab
# [4] = biological target: tissue factor (TF) antigen (UniProt P13726); experiment: SPR (ProteOn XPR36): Fab captured via His tag on anti-penta-His, TF as analyte, 1:1 fit
# [5] = biological target: tissue factor (TF) antigen (UniProt P13726); experiment: SPR (ProteOn), against wild-type D3H44 Fab
# [6] = biological target: tissue factor (TF) antigen (UniProt P13726); experiment: SPR (ProteOn), Fab captured by anti-penta-His, TF as analyte, 1:1 fit
# Sequence of tissue factor (TF) antigen (P13726 33-251 limits assumed): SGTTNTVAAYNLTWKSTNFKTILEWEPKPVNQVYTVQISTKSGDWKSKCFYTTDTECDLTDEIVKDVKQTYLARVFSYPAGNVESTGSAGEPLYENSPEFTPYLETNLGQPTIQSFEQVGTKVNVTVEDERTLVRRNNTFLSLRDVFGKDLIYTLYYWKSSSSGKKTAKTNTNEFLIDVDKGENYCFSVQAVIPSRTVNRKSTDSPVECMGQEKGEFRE
Change in KD with respect to wild type (-(log(KD design) - log(KD wt))) [3],Kd [4] [nM],Change in KD with respect to wild type (-(log(KD design) - log(KD wt))) [5],Kd [6] [nM],Substance,other results
-0.06,0.18,–,–,"D3H44 Fab heterodimer, H S186R / L Q124E_S176L_T180E (H1L1 of LCCA set 9886)",–
0.28,0.08,–,–,"D3H44 Fab heterodimer, H Q179K / L Q124E_S176L_T180E (H1L1 of LCCA set 9782)",–
-0.09,0.2,–,–,"D3H44 Fab heterodimer, H L143R / L Q124E_V133E (H1L1 of LCCA sets 9735 and 9737)",–
-0.25,0.28,–,–,"D3H44 Fab heterodimer, H L143E_K145T / L Q124R (H1L1 of LCCA set 9587)",–
0.03,0.15,–,–,"D3H44 Fab heterodimer, H S186K / L Q124E_S176L_T180E (H1L1 of LCCA set 9848)",–
0.51,0.05,–,–,"D3H44 Fab heterodimer, H S186R / L Q124E_Q160E_T180E (H1L1 of LCCA sets 9876 and 9874)",–
0.09,0.13,–,–,"D3H44 Fab heterodimer, H S186K / L Q124E_S131T_T178Y_T180E (H1L1 of LCCA set 9846)",–
–,–,0.09,0.13,"D3H44 Fab heterodimer, H1L1 of LCCA sets 9831, 9833 and 9841 (H: S186K; L: Q124E_Q160E_T180E)",–
-0.31,0.32,–,–,"D3H44 Fab heterodimer, H Q179K / L Q124E_Q160E_T180E (H1L1 of LCCA sets 9761, 9769 and 9767)",–
–,–,0.15,0.11,"D3H44 Fab heterodimer, H1L1 of LCCA set 9987 (H: L143E_K145T; L: Q124R_T178R)",–
–,–,0.06,0.14,"D3H44 Fab heterodimer, H1L1 of LCCA set 9867 (H: S186R; L: Q124E_Q160E_T178E)",–
–,–,0.39,0.06,"D3H44 Fab heterodimer, H1L1 of LCCA set 9620 (H: L143E_K145T_Q179D; L: Q124R_Q160K_T178R)",–
–,–,0.06,0.14,"D3H44 Fab heterodimer, H1L1 of LCCA set 9887 (H: S186R; L: Q124E_T178E)",–
–,–,0.14,0.11,"D3H44 Fab heterodimer, H1L1 of LCCA set 9803 (H: Q179R; L: Q124E_S131T_T178F_T180E)",–
–,–,-0.34,0.34,"D3H44 Fab heterodimer, H1L1 of LCCA set 9688 (H: L143E_K145T_Q179E_S188L; L: Q124R_T178R)",–
–,–,0.17,0.11,"D3H44 Fab heterodimer, H1L1 of LCCA set 9638 (H: L143E_K145T_Q179D; L: T178R)",–
–,–,0.04,0.14,"D3H44 Fab heterodimer, H1L1 of LCCA set 9632 (H: L143E_K145T_Q179D; L: Q124R_T178R)",–
–,–,0.51,0.05,"D3H44 Fab heterodimer, H1L1 of LCCA sets 9869, 9871, 9874, 9876 and 9879 (H: S186R; L: Q124E_Q160E_T180E)",–
–,–,-0.19,0.24,"D3H44 Fab heterodimer, H1L1 of LCCA sets 9708, 9712 and 9716 (H: L143E_K145T_S188L; L: Q124R_Q160K_T178R)",–
0.12,0.12,–,–,"D3H44 Fab heterodimer, H L143E_K145T_Q179D / L Q124R_T178K (H1L1 of LCCA set 9626)",–

# Further lines, the substance ahead of its results:
Substance,Change in KD with respect to wild type (-(log(KD design) - log(KD wt))) [3],Kd [4] [nM],Change in KD with respect to wild type (-(log(KD design) - log(KD wt))) [5],Kd [6] [nM],other results
"D3H44 Fab heterodimer, H1 K145T_Q179E / L1 S131K (H1L1 of LCCA set 9082)",–,–,–,–,Change in KD with respect to wild type (-(log(KD design) - log(KD wt))) [1]: -0.01; Kd [2]: 0.16 nM
"D3H44 Fab heterodimer, H L143E_K145T_Q179E / L Q124R_Q160K_T178R (H1L1 of LCCA set 9654)",0.02,0.15,–,–,–
"D3H44 Fab heterodimer, H1 L124E_L143E_K145M / L1 Q124K_V133G_S176R_T178K (H1L1 of LCCA sets 9260 and 9263)",–,–,–,–,Change in KD with respect to wild type (-(log(KD design) - log(KD wt))) [1]: -0.19; Kd [2]: 0.24 nM
"D3H44 Fab heterodimer, H S186K / L Q124E_Q160E_T178E (H1L1 of LCCA set 9829)",0.41,0.06,–,–,–
"D3H44 Fab heterodimer, H Q179R / L Q124E_S176L_T180E (H1L1 of LCCA set 9808)",-0.02,0.17,–,–,–
"D3H44 Fab heterodimer, H1 A139G_F174V_V190A / L1 S131T_L135F_S176F_T178F (H1L1 of LCCA set 9051)",–,–,–,–,Change in KD with respect to wild type (-(log(KD design) - log(KD wt))) [1]: 0.06; Kd [2]: 0.14 nM
"D3H44 Fab heterodimer, H S186K / L Q124E_Q160E_T180E (H1L1 of LCCA sets 9836 and 9841)",0.09,0.13,–,–,–
"D3H44 Fab heterodimer, H1 L124E_H172T / L1 V133G_N137K_S174R_S176R (H1L1 of LCCA set 9120)",–,–,–,–,Change in KD with respect to wild type (-(log(KD design) - log(KD wt))) [1]: 0.08; Kd [2]: 0.13 nM
"D3H44 Fab heterodimer, H Q179K / L Q124E_T180E (H1L1 of LCCA sets 9797, 9794, 9789 and 9787)",0.16,0.11,–,–,–
"D3H44 Fab heterodimer, H S186R / L Q124E_T180E (H1L1 of LCCA sets 9891, 9901, 9898 and 9893)",0.36,0.07,–,–,–
"D3H44 Fab heterodimer, H1L1 of LCCA set 9885 (H: S186R; L: Q124E_S176L_T180E)",–,–,-0.06,0.18,–
"D3H44 Fab heterodimer, H1L1 of LCCA set 9983 (H: Q179K; L: S131E)",–,–,0.05,0.14,–
"D3H44 Fab heterodimer, H1L1 of LCCA set 9444 (H: L124R_Q179K; L: V133G_S176D_T180E)",–,–,-0.26,0.28,–
"D3H44 Fab heterodimer, H1L1 of LCCA sets 9763 and 9773 (H: Q179K; L: Q124E_Q160E_T180E)",–,–,-0.31,0.32,–
"D3H44 Fab heterodimer, H L143E_K145T_Q179E_S188L / L Q124R_T178R (H1L1 of LCCA sets 9696 and 9692)",-0.34,0.34,–,–,–
"D3H44 Fab heterodimer, H S186K / L Q124E_T180E (H1L1 of LCCA sets 9855, 9860 and 9863)",0.46,0.06,–,–,–

# From patent US11306156
